Reference: PMC5788916, “The SAM domain of mouse SAMHD1 is critical for its activation and regulation” (Nature Communications, 2018)
“And” between values parts separate entries of the source, which are not always exact repeats. Equal values may be shown once. Blank lines part the entries; values can stand above or below the molecule they belong to.

Assays:
[1] = biological target: full-length mouse SAMHD1 (mSAMHD1), wild type (mouse) (UniProt Q60710); assay: not stated; up to 24 h of assembly with dGTP-α-S (Supplementary Fig. 1a)
[2] = biological target: full-length mouse SAMHD1 (mSAMHD1), wild type (mouse) (UniProt Q60710); assay: crystal structure; 1-Allo: co-crystallised with 4 mM dGTP-α-S; space group P2(1)2(1)2, 2 copies in the asymmetric unit; 3.4 Å
[3] = biological target: full-length mouse SAMHD1 (mSAMHD1), wild type (mouse) (UniProt Q60710); assay: AUC; sedimentation velocity, 0.8-1.3 mg/mL, 20 °C, 50 mM Tris-HCl pH 8.0, 150 mM NaCl, 5 mM MgCl2, 0.5 mM TCEP; with 150 uM nucleotides (dGTP-α-S)
[4] = biological target: full-length mouse SAMHD1 (mSAMHD1), wild type (mouse) (UniProt Q60710); assay: AUC; sedimentation velocity, 0.8-1.3 mg/mL, 20 °C, 50 mM Tris-HCl pH 8.0, 150 mM NaCl, 5 mM MgCl2, 0.5 mM TCEP; protein alone, no nucleotides added
[5] = biological target: full-length mouse SAMHD1 (mSAMHD1), wild type (mouse) (UniProt Q60710); assay: SEC; Superdex 200 10/300 GL; 2 mg/ml, 200 ul; 50 mM Tris-HCl pH 8.0, 150 mM NaCl, 5 mM MgCl2, 0.5 mM TCEP; after addition of dGTP-α-S (methods: nucleotide 4 mM final); read-out: assembly of monomers or dimers into tetramers
[6] = biological target: full-length mouse SAMHD1 (mSAMHD1), wild type (mouse) (UniProt Q60710); assay: as above; remark: listed apart in the source
[7] = biological target: full-length mouse SAMHD1 (mSAMHD1), wild type (mouse) (UniProt Q60710); assay: SEC; Superdex 200 10/300 GL; 2 mg/ml, 200 ul; 50 mM Tris-HCl pH 8.0, 150 mM NaCl, 5 mM MgCl2, 0.5 mM TCEP; no nucleotides added
[8] = biological target: full-length mouse SAMHD1 (mSAMHD1), wild type (mouse) (UniProt Q60710); assay: AUC; sedimentation velocity, 0.8-1.3 mg/mL, 20 °C, 50 mM Tris-HCl pH 8.0, 150 mM NaCl, 5 mM MgCl2, 0.5 mM TCEP; with 150 uM nucleotides (dGTP-α-S); remark: listed apart in the source
[9] = biological target: full-length mouse SAMHD1 (mSAMHD1), wild type (mouse) (UniProt Q60710); assay: crystal structure; No-Allo (0-Allo): crystallised without nucleotides; space group C2, 4 copies in the asymmetric unit; 3.5 Å
[10] = biological target: mouse SAMHD1 HD domain, isoform 2 (residues 145-651) (mouse); assay: AUC; sedimentation velocity, 0.8-1.3 mg/mL, 20 °C, 50 mM Tris-HCl pH 8.0, 150 mM NaCl, 5 mM MgCl2, 0.5 mM TCEP; with 150 uM nucleotides (dGTP-α-S)
[11] = biological target: mouse SAMHD1 HD domain, isoform 2 (residues 145-651) (mouse); assay: AUC; sedimentation velocity, 0.8-1.3 mg/mL, 20 °C, 50 mM Tris-HCl pH 8.0, 150 mM NaCl, 5 mM MgCl2, 0.5 mM TCEP; protein alone, no nucleotides added
[12] = biological target: mouse SAMHD1 HD domain, isoform 2 (residues 145-651) (mouse); assay: SEC; Superdex 200 10/300 GL; 2 mg/ml, 200 ul; 50 mM Tris-HCl pH 8.0, 150 mM NaCl, 5 mM MgCl2, 0.5 mM TCEP; after addition of dGTP-α-S (methods: nucleotide 4 mM final); read-out: assembly of monomers or dimers into tetramers
[13] = biological target: mouse SAMHD1 HD domain, isoform 2 (residues 145-651) (mouse); assay: AUC; sedimentation velocity, 0.8-1.3 mg/mL, 20 °C, 50 mM Tris-HCl pH 8.0, 150 mM NaCl, 5 mM MgCl2, 0.5 mM TCEP; with 150 uM nucleotides (dGTP-α-S); remark: listed apart in the source
[14] = biological target: the molecule itself; assay: SEC; Superdex 200 10/300 GL; 2 mg/ml, 200 ul; 50 mM Tris-HCl pH 8.0, 150 mM NaCl, 5 mM MgCl2, 0.5 mM TCEP; after addition of dGTP-α-S (methods: nucleotide 4 mM final); read-out: assembly of monomers or dimers into tetramers
[15] = biological target: the molecule itself; assay: AUC; sedimentation velocity, 0.8-1.3 mg/mL, 20 °C, 50 mM Tris-HCl pH 8.0, 150 mM NaCl, 5 mM MgCl2, 0.5 mM TCEP; protein alone, no nucleotides added

B1: human SAMHD1 L77F/C80F/H111R triple mutant (FFR) (enzyme, UniProt Q9Y3Z3 1-626, looked up)
chain: MQRADSEQPSKRPRCDDSPRTPSNTPSAEADWSPGLELHPDYKTWGPEQVCSFLRRGGFEEPVLLKNIRENEITGAFLPFLDESRFENLGVSSLGERKKLLSYIQRLVQIRVDTMKVINDPIHGHIELHPLLVRIIDTPQFQRLRYIKQLGGGYYVFPGASHNRFEHSLGVGYLAGCLVHALGEKQPELQISERDVLCVQIAGLCHDLGHGPFSHMFDGRFIPLARPEVKWTHEQGSVMMFEHLINSNGIKPVMEQYGLIPEEDICFIKEQIVGPLESPVEDSLWPYKGRPENKSFLYEIVSNKRNGIDVDKWDYFARDCHHLGIQNNFDYKRFIKFARVCEVDNELRICARDKEVGNLYDMFHTRNSLHRRAYQHKVGNIIDTMITDAFLKADDYIEITGAGGKKYRISTAIDDMEAYTKLTDNIFLEILYSTDPKLKDAREILKQIEYRNLFKYVGETQPTGQIKIKREDYESLPKEVASAKPKVLLDVKLKAEDFIVDVINMDYGMQEKNPIDHVSFYCKTAPNRAIRITKNQVSQLLPEKFAEQLIRVYCKKVDRKSLYAARQYFVQWCADRNFTKPQDGDVIAPLITPQKKEWNDSTSVQNPTRLREASKSRVQLFKDDPM
notes: human SAMHD1 with three SAM domain residues changed to their mouse counterparts; compared with full-length WT hSAMHD1; also called FFR mutant; source: purified
stoichiometry N [14]: 4

B2: mouse SAMHD1 HD domain, isoform 1 (residues 145-658) (domain or fragment, UniProt Q60710 145-658, looked up)
chain: DLMKVFNDPIHGHIEFHPLLIRIIDTPQFQRLRYIKQLGGGYYVFPGASHNRFEHSLGVGYLAGCLVRALAEKQPELQISERDILCVQIAGLCHDLGHGPFSHMFDGRFIPRARPEKKWKHEQGSIEMFEHLVNSNELKLVMKNYGLVPEEDITFIKEQIMGPPITPVKDSLWPYKGRPATKSFLYEIVSNKRNGIDVDKWDYFARDCHHLGIQNNFDYKRFIKFARICEVEYKVKEDKTYIRKVKHICSREKEVGNLYDMFHTRNCLHRRAYQHKISNLIDIMITDAFLKADPYVEITGTAGKKFRISTAIDDMEAFTKLTDNIFLEVLHSTDPQLSEAQSILRNIECRNLYKYLGETQPKREKIRKEEYERLPQEVAKAKPEKAPDVELKAEDFIVDVINVDYGMEDKNPIDRVHFYCKSNSKQAVRINKEQVSQLLPEKFAEQLIRVYCKKKDGKSLDAAGKHFVQWCALRDFTKPQDGDIIAPLITPLKWNNKTSSCLQEVSKVKTCLKF
notes: mouse SAMHD1 isoform 1, HD domain without the SAM domain, residues 145-658; The text speaks of 'mHD' and gives limits for both isoforms; source: E. coli BL21 (DE3), purified (Ni-NTA, size-exclusion chromatography)
stoichiometry N [14]: 4
stoichiometry N [15]: 2

Further lines, results first:

stoichiometry N [1]: 4
stoichiometry N [2]: 4
stoichiometry N [3]: 2
stoichiometry N [4]: 2 and 4
stoichiometry N [5]: 2
stoichiometry N [6]: 4
stoichiometry N [7]: 2 and 4
stoichiometry N [8]: 4
stoichiometry N [9]: 4
Molecule: full-length mouse SAMHD1 (mSAMHD1), wild type (from UniProt Q60710 1-658) (enzyme)

stoichiometry N [10]: 4
stoichiometry N [11]: 2
stoichiometry N [12]: 4
stoichiometry N [13]: 2
Molecule: mouse SAMHD1 HD domain, isoform 2 (residues 145-651) (domain or fragment)
